In article PMC10844826 (iScience, 2024):
One block for each molecule: values may come before it.

How the values were obtained:
[1] = molecular target: GST-tagged Arabidopsis thaliana Rpn10 vWA domain (Arabidopsis thaliana) (UniProt P55034); experiment: SPR
[2] = molecular target: T1, GST-tagged Arabidopsis thaliana Rpn10 vWA domain (Arabidopsis thaliana, UniProt P55034 2-193); experiment: SPR
T1 sequence: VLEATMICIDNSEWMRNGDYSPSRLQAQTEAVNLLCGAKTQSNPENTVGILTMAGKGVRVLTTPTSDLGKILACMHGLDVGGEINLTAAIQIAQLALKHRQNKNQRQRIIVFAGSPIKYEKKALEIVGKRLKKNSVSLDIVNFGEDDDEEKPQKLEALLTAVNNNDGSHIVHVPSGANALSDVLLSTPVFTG

[3] = molecular target: T2, AtRpn10 vWA domain, GST removed, as in the purified complexes (Arabidopsis thaliana, UniProt P55034 2-193); experiment: SEC-MALS
T2 sequence: T1 sequence

Molecule: onion yellows phytoplasma SAP05 (natural protein)
Kd [1]: 398 nM

Kd [2]: 400 nM
B1: Aster Yellows witches'-broom phytoplasma SAP05 (33-135) (natural protein, UniProt Q2NK94 33-135, looked up)
chain: APNEEFVGDMRIVNVNLSNIDILKKHETFKKYFDFTLTGPRYNGNIAEFAMIWKIKNPPLNLLGVFFDDGTRDDEDDKYILEELKQIGNGAKNMYIFWQYEQK

stoichiometry N [3]: 1
B2: AYWB_SAP05 (33-135), tag removed, as in the purified complex (natural protein, UniProt Q2NK94 33-135, looked up)
chain: B1 chain
